Laboratory results as given in publication PMC3903488, “Characterization of a Ginsenoside-Transforming β-glucosidase from Paenibacillus mucilaginosus and Its Application for Enhanced Production of Minor Ginsenoside F2” (PLoS ONE, 2014).

Tests used:
[1] = substrate: CC(C)=CCC[C@](C)(O[C@@H]1O[C@H](CO[C@@H]2O[C@H](CO)[C@@H](O)[C@H](O)[C@H]2O)[C@@H](O)[C@H](O)[C@H]1O)[C@H]1CC[C@]2(C)[C@@H]1[C@H](O)C[C@@H]1[C@@]3(C)CC[C@H](O[C@@H]4O[C@H](CO)[C@@H](O)[C@H](O)[C@H]4O[C@@H]4O[C@H](CO)[C@@H](O)[C@H](O)[C@H]4O)C(C)(C)[C@@H]3CC[C@]12C; experiment: initial velocity, non-linear regression; type: biochemical, Paenibacillus mucilaginosus; details: 0.2-5.0 mM substrate; assay buffer not given
From the text: (§1) initial velocity, non-linear regression on BglPm

[2] = substrate: CC(C)=CCC[C@](C)(O[C@@H]1O[C@H](CO)[C@@H](O)[C@H](O)[C@H]1O)[C@H]1CC[C@]2(C)[C@@H]1[C@H](O)C[C@@H]1[C@@]3(C)CC[C@H](O[C@@H]4O[C@H](CO)[C@@H](O)[C@H](O)[C@H]4O[C@@H]4O[C@H](CO)[C@@H](O)[C@H](O)[C@H]4O)C(C)(C)[C@@H]3CC[C@]12C; experiment: initial velocity, non-linear regression; type: biochemical, Paenibacillus mucilaginosus; details: 0.2-5.0 mM substrate; assay buffer not given
From the text: as §1

[3] = substrate: O=[N+]([O-])c1ccc(O[C@@H]2O[C@H](CO)[C@@H](O)[C@H](O)[C@H]2O)cc1; experiment: purified protein; details: 0.1-10.0 mM substrate, standard activity assay 50 mM sodium phosphate pH 7.5, 37 °C

B1: BglPm (Paenibacillus mucilaginosus 3016) (protein)
chain: EYIFPQQFMFGSATAAYQVEGNNTNSDFWAEEHAEGSPYQDKSGDAVDHYRLYREDIALMASLGLKAYRFSIEWARIEPAPGQFSLSAIAHYRDVLQACYEHRLTPVVAMHHFSSPQWLMRFGGWGSEEVPERFAKYCEFVFQELGDLIPYVLTFNEVNLPVMLREVFSSIGIIPPVGIDGAAWTAPGWRASAAQLCGTTADRYVTFHMISDEPKIALLMEAHRRARQTIKRLQPNAKVGLSMALSDIQSVPGGEAWAQQKWQQYFEQYLPALEGDDFFGLQNYTREVYGPEGRVTPAADAELTQMKYEYYPEALGQVIRKVAKALTLPIFVTEHGVATDDDERRIEFIRRGLQGVHACLEEGIDVRGYLHWTTFDNFEWNAGYSMRFGLIGVDRTTQERTVKESARYLGRIASTKVL
notes: expressed in E. coli BL21(DE3)
Km [1]: 384 ± 64 µM
Vmax [1]: 0.369 µmol/min/mg
kcat [1]: 0.458 ± 0.018 s⁻¹
kcat/Km [1]: 1230 ± 250 M⁻¹ s⁻¹
Km [2]: 352 ± 53 µM
Vmax [2]: 0.484 µmol/min/mg
kcat [2]: 0.601 ± 0.066 s⁻¹
kcat/Km [2]: 1780 ± 460 M⁻¹ s⁻¹
Km [3]: 3240 ± 390 µM
Vmax [3]: 10.2 µmol/min/mg
kcat [3]: 8.13 s⁻¹
kcat/Km [3]: 2560 M⁻¹ s⁻¹
